From PMC7906288 come the findings set out here.

Holding throughout (assay): native MS
The target in assay [1] is NISTmAb, recombinant humanized monoclonal IgG1 antibody (not stated | human (humanized antibody)).
Assay [2] concerns the target SILu Lite SigmaMAb universal antibody standard human (MSQC4) (human).
The target is the same in assay [3]. The source holds these as a separate data set.
Assay [4] shares this target. The source holds these as a separate data set.

Read-outs that look alike come from different tables or passages of the source.

For the substance “NISTmAb, recombinant humanized monoclonal IgG1 antibody”, the stoichiometry N in assay [1] turned out to be 2.

As to “SILu Lite SigmaMAb universal antibody standard human (MSQC4)”, the stoichiometry N in assay [2], in assay [3] and in assay [4] was 2 each time.

For orientation: stoichiometry N means the number of molecules, sites or subunits per partner or assembly.
